Experimental data reported in IntAct's records for PubMed 27857056.

B1: UDP-glucuronosyltransferase 1A9 (Homo sapiens), O60656-1 (parent)
chain: MACTGWTSPLPLCVCLLLTCGFAEAGKLLVVPMDGSHWFTMRSVVEKLILRGHEVVVVMPEVSWQLGRSLNCTVKTYSTSYTLEDLDREFKAFAHAQWKAQVRSIYSLLMGSYNDIFDLFFSNCRSLFKDKKLVEYLKESSFDAVFLDPFDNCGLIVAKYFSLPSVVFARGILCHYLEEGAQCPAPLSYVPRILLGFSDAMTFKERVRNHIMHLEEHLLCHRFFKNALEIASEILQTPVTEYDLYSHTSIWLLRTDFVLDYPKPVMPNMIFIGGINCHQGKPLPMEFEAYINASGEHGIVVFSLGSMVSEIPEKKAMAIADALGKIPQTVLWRYTGTRPSNLANNTILVKWLPQNDLLGHPMTRAFITHAGSHGVYESICNGVPMVMMPLFGDQMDNAKRMETKGAGVTLNVLEMTSEDLENALKAVINDKSYKENIMRLSSLHKDRPVEPLDLAVFWVEFVMRHKGAPHLRPAAHDLTWYQYHSLDVIGFLLAVVLTVAFITFKCCAYGYRKCLGKKGRVKKAHKSKTH
partner: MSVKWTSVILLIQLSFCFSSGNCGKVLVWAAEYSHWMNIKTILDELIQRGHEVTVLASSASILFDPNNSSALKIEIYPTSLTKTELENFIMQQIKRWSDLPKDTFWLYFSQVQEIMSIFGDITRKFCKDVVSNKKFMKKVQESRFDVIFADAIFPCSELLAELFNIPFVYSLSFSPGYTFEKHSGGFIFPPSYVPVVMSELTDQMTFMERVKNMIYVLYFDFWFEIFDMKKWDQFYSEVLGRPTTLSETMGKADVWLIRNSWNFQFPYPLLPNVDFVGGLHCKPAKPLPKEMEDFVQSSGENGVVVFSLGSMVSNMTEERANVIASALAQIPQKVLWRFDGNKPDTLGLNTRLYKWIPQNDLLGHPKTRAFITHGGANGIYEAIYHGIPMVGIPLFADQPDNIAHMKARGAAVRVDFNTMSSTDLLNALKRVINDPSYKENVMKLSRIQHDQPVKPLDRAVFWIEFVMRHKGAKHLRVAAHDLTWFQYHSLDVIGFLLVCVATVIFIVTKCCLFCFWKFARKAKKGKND
B2: UDP-glucuronosyltransferase 1A9 (Homo sapiens), O60656-1 (parent)
chain: B1 chain
partner: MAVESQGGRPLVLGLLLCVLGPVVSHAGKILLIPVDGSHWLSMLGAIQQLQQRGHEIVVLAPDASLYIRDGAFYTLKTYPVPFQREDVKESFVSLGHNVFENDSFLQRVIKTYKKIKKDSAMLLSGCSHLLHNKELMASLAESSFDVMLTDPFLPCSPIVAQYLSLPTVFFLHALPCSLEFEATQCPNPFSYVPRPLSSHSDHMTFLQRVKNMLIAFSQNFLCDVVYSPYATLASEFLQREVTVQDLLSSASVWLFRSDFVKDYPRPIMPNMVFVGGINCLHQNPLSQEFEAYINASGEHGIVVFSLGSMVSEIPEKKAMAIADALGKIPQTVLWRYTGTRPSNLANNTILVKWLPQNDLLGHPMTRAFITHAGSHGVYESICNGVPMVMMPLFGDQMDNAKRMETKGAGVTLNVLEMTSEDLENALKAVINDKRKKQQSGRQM
B3: UDP-glucuronosyltransferase 2B7 (Homo sapiens), P16662 (parent)
chain: B1 partner
partner: B2 partner
B4: UDP-glucuronosyltransferase 2B7 (Homo sapiens), P16662 (parent)
chain: B1 partner
partner: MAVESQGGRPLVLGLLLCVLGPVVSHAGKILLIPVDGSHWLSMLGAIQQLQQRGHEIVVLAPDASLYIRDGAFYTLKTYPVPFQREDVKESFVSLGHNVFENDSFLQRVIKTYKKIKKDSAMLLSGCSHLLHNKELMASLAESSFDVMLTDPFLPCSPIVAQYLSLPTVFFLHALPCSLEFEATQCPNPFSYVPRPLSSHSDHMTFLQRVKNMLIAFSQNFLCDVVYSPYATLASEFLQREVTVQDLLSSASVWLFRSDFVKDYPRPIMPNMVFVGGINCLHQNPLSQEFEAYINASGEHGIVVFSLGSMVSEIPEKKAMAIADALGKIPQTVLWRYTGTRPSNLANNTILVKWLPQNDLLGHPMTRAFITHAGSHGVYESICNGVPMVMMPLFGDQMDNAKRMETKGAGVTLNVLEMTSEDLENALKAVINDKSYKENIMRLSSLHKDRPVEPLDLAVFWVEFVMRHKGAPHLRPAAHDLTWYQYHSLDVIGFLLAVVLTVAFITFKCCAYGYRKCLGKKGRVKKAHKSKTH
B5: UDP-glucuronosyltransferase 2B7 (Homo sapiens), P16662 (parent)
chain: B1 partner
partner: B1 chain
B6: UDP-glucuronosyltransferase 1A9 (Homo sapiens), O60656-1 (parent)
chain: B1 chain
partner: B4 partner

Variants of: B1
Conditions: with ud2b7_human UGT2B7, P16662

| effect of a mutation on the interaction | Variant |
| --- | --- |
| with no effect | D256N |
| with no effect | C3Y |
| with no effect | M33T |

Variants of: B2
Conditions: with UGT1A1, P22309-2

| effect of a mutation on the interaction | Variant |
| --- | --- |
| with no effect | M33T |
| with no effect | D256N |
| with no effect | C3Y |

Variants of: B3
Conditions: with UGT1A1, P22309-2

| effect of a mutation on the interaction | Variant |
| --- | --- |
| disrupting interaction strength | D398N |
| with no effect | A71S |

Variants of: B4
Conditions: with UGT1A1, P22309-1

| effect of a mutation on the interaction | Variant |
| --- | --- |
| with no effect | A71S |
| with no effect | D398N |

Variants of: B5
Conditions: with UGT1A9, O60656-1

| effect of a mutation on the interaction | Variant |
| --- | --- |
| with no effect | A71S |
| with no effect | D398N |

Variants of: B6
Conditions: with UGT1A1, P22309-1

| effect of a mutation on the interaction | Variant |
| --- | --- |
| with no effect | M33T |
| with no effect | D256N |
| with no effect | C3Y |
